{"source": "patent US11098085B2", "about": "“Use of a HIV derived accessory protein for the reactivation of latent HIV” (Janssen Sciences Ireland Unlimited Company, priority 2014, dated 2021)", "molecules": {"B1": {"name": "T66 (protein)", "chain": "MEPVDPRLEPWKHPGSQPKTACTNCYCKKCCFHCQVCFMTKALGISYGRKKRRQRRRAHQNSQTHQ", "modifications": "Human immunodeficiency virus 1"}, "B2": {"name": "T72: full length exon 1 Tat [1-72 aa], contains all domains essential for trans-activation (protein, UniProt P04608 1-72, looked up, fragment)", "chain": "MEPVDPRLEPWKHPGSQPKTACTNCYCKKCCFHCQVCFITKALGISYGRKKRRQRRRAHQNSQTHQASLSKQ"}, "B3": {"name": "T86: Tat protein T86; full length tat protein is 86-101 aa (protein, UniProt P04608 1-86, looked up)", "Protein Tat": "MEPVDPRLEPWKHPGSQPKTACTNCYCKKCCFHCQVCFITKALGISYGRKKRRQRRRAHQNSQTHQASLSKQPTSQPRGDPTGPKE"}}, "key": {"[1]": {"test_system": "HIV LTR", "assay": "HIV LTR transactivation by Tat C-terminal deletion mutants (triple plasmid transfection, Dual-Glo luciferase)", "type": "cell-based", "settings": "HEK293 cells, 24 h post transfection, full length Tat72 exon-1 set to 100%, mean (standard deviation)", "protocol": "Activity is expressed in % with respect to the activity achieved by full length Tat72 exon-1 set to 100%. Shown data are mean values [n 4] with indicated (standard deviation).\nTat-mediated transactivation was determined by triple plasmid transfection of HEK293 cells with pEF-T, a Tat expression plasmid, LTR-FLuc, a HIV LTR-controlled firefly luciferase reporter plasmid and pEF1-RLuc, a EF1α promoter driven Renilla luciferase reporter plasmid. Luciferase reporter activities were assessed 24 h post transfection using the Dual-Glo luciferase assay [Promega]. The measured HIV LTR luciferase data were normalized by Renilla luciferase data retrieved from the pEF1-RLuc plasmid. LTR activity is expressed as percentage of wild type exon-1 Tat72 activity."}, "[2]": {"test_system": "MT4-LTR-GFP cells", "assay": "Titration of tat protein variants on latent HIV LTR-GFP reporter cell line (flow cytometry)", "type": "cell-based", "design": "unit not given here", "settings": "overnight", "protocol": "MT4-LTR-GFP cells were incubated overnight with different Tat variants at the indicated concentration [μg/ml]. LTR activation was determined by flow cytometry."}, "[3]": {"test_system": "latent HIV", "assay": "Ex vivo activation of latent HIV from primary CD4+ T cells of HIV-infected individuals (gag RNA QPCR)", "type": "cell-based, HIV-1", "settings": "for % Activity (PHA): PHA set to 100%; for % Activity (PMA): PMA set to 100%", "protocol": "Activation of latent HIV from primary CD4^+ T cells by overnight incubation with different Tat proteins. Indicated numbers represent HIV activation in percentage to reference compounds PMA and PHA set to 100%. The shown % increase compared to PMA/PHA is statistically significant (p<0.01).\nCD4^+ T cells were isolated from 200 ml whole blood using CD4 microbeads (Miltenyi Biotec) according to manufacturer's protocol. Blood originates from HIV-infected individuals under long-term HAART with undetectable plasma virus. Ten to twenty replicates of cell pools plated at 1×10^6 CD4^+ T cells/well were incubated overnight with compounds or mock controls (DMSO/PBS). Total RNA was isolated from each replicate using the Magmax 96 Total RNA isolation kit (Ambion) following the manufacturer's protocol. Duplicate cDNA reactions were performed on each RNA replicate using SuperScript III First-Strand Synthesis kit (Invitrogen) according to the manufacturer's protocol. Quantitative real-time PCR (QPCR) was conducted on each cDNA applying gag-specific primers and the nucleic acid detection dye Sybr Green I [Invitrogen]. Standard curves were generated using cDNA synthesized from in vitro transcribed RNA. The detection limit of the QPCR assay was determined to be within 1-10 copies/reaction. Cycle threshold (ct) values 40 were excluded from the analysis. The Wilcoxon rank sum test was used to calculate the statistical significance of the relative HIV-1 gag RNA copy number between different conditions."}, "[4]": {"test_system": "HIV LTR", "assay": "HIV LTR activation by T66 fusion proteins (triple plasmid transfection of HEK293 cells, Dual-Glo luciferase)", "type": "cell-based", "protocol": "Triple plasmid transfection of HEK293 cells with pEF-T (Tat expression plasmid), LTR-FLuc (HIV LTR-controlled firefly luciferase reporter plasmid) and pEF1-RLuc (EF1α promoter driven Renilla luciferase reporter plasmid). Luciferase reporter activities were assessed 24 h post transfection using the Dual-Glo luciferase assay [Promega]. The measured HIV LTR luciferase data were normalized by Renilla luciferase data collected from the co-transfected pEF1-RLuc signal. LTR activation is either expressed as fold increase over cell control or as percentage of T66 activity."}}, "data": [{"molecule": "1-57: first 57 N-terminal amino acids of wild-type tat, SEQ ID No 1; minimal reactivation domain (MEPVDPRLEPWKHPGSQPKTACTNCYCKKCCFHCQVCFMTKALGISYGRKKRRQRRR; Human immunodeficiency virus 1) [Tat 1-57]", "values": [{"measurement": "% Tat72 activity", "setting": "[1]", "result": "40.2 (±2.3) %"}]}, {"molecule": "T60: first 60 N-terminal amino acids of wild-type tat, SEQ ID No 2 (MEPVDPRLEPWKHPGSQPKTACTNCYCKKCCFHCQVCFMTKALGISYGRKKRRQRRRAHQ; Human immunodeficiency virus 1) [Tat T60]", "values": [{"measurement": "% Tat72 activity", "setting": "[1]", "result": "77.2 (±10.8) %"}, {"measurement": "LTR activation", "setting": "[2]; Tat 30 μg/ml", "result": 28.5}, {"measurement": "LTR activation", "setting": "[2]; Tat 40 μg/ml", "result": 33.4}, {"measurement": "LTR activation", "setting": "[2]; Tat 50 μg/ml", "result": 87.0}, {"measurement": "LTR activation", "setting": "[2]; Tat 60 μg/ml", "result": 92.1}, {"measurement": "LTR activation", "setting": "[2]; Tat 70 μg/ml", "result": 95.2}, {"measurement": "LTR activation", "setting": "[2]; Tat 80 μg/ml", "result": 95.8}, {"measurement": "LTR activation", "setting": "[2]; Tat 100 μg/ml", "result": 93.3}, {"measurement": "% Activity (PHA)", "setting": "[3]; Donor 1, overnight incubation", "result": 328, "unit": "%"}, {"measurement": "% Activity (PMA)", "setting": "[3]; Donor 1, overnight incubation", "result": 405, "unit": "%"}, {"measurement": "% Activity (PHA)", "setting": "[3]; Donor 3, overnight incubation", "result": 196, "unit": "%"}, {"measurement": "% Activity (PMA)", "setting": "[3]; Donor 3, overnight incubation", "result": 213, "unit": "%"}, {"measurement": "% Activity (PHA)", "setting": "[3]; Donor 5, overnight incubation", "result": "ND/254%"}]}, {"molecule": "B1", "values": [{"measurement": "% Tat72 activity", "setting": "[1]", "result": "92.2 (±12.7) %"}, {"measurement": "LTR activation", "setting": "[2]; Tat 30 μg/ml", "result": 45.7}, {"measurement": "LTR activation", "setting": "[2]; Tat 40 μg/ml", "result": 53.8}, {"measurement": "LTR activation", "setting": "[2]; Tat 50 μg/ml", "result": 87.0}, {"measurement": "LTR activation", "setting": "[2]; Tat 60 μg/ml", "result": 88.7}, {"measurement": "LTR activation", "setting": "[2]; Tat 70 μg/ml", "result": 87.6}, {"measurement": "LTR activation", "setting": "[2]; Tat 80 μg/ml", "result": 93.9}, {"measurement": "LTR activation", "setting": "[2]; Tat 100 μg/ml", "result": 94.5}, {"measurement": "% Activity (PHA)", "setting": "[3]; Donor 1, overnight incubation", "result": 680, "unit": "%"}, {"measurement": "% Activity (PMA)", "setting": "[3]; Donor 1, overnight incubation", "result": 838, "unit": "%"}, {"measurement": "% Activity (PHA)", "setting": "[3]; Donor 2, overnight incubation", "result": 986, "unit": "%"}, {"measurement": "% Activity (PHA)", "setting": "[3]; Donor 3, overnight incubation", "result": 487, "unit": "%"}, {"measurement": "% Activity (PMA)", "setting": "[3]; Donor 3, overnight incubation", "result": 530, "unit": "%"}, {"measurement": "% Activity (PHA)", "setting": "[3]; Donor 4, overnight incubation", "result": "ND/479%"}, {"measurement": "% Activity (PHA)", "setting": "[3]; Donor 5, overnight incubation", "result": "ND/636%"}, {"measurement": "HIV activation ex vivo compared with reference compounds", "setting": "[3]; patient-derived latently infected CD4 cells, versus PHA, PMA and SAHA", "result": "exceeded by far the reactivation achieved by reference compounds"}, {"measurement": "RLUC", "setting": "[4]; EF1α promoter driven Renilla luciferase (normalisation signal), HEK293, 24 h post transfection", "result": 267}, {"measurement": "FLUC", "setting": "[4]; HIV LTR-controlled firefly luciferase, HEK293, 24 h post transfection", "result": 15437}, {"measurement": "FLUCnorm", "setting": "[4]; firefly luciferase normalized by Renilla luciferase", "result": 37049}, {"measurement": "Fold", "setting": "[4]; fold increase over cell control", "result": 26}, {"measurement": "% T66", "setting": "[4]; percentage of T66 activity", "result": 100, "unit": "%"}]}, {"molecule": "B2", "values": [{"measurement": "LTR activation", "setting": "[2]; Tat 30 μg/ml", "result": 18.6}, {"measurement": "LTR activation", "setting": "[2]; Tat 40 μg/ml", "result": 47.2}, {"measurement": "LTR activation", "setting": "[2]; Tat 50 μg/ml", "result": 60.4}, {"measurement": "LTR activation", "setting": "[2]; Tat 60 μg/ml", "result": 76.3}, {"measurement": "LTR activation", "setting": "[2]; Tat 70 μg/ml", "result": 88.8}, {"measurement": "LTR activation", "setting": "[2]; Tat 80 μg/ml", "result": 93.8}, {"measurement": "LTR activation", "setting": "[2]; Tat 100 μg/ml", "result": 93.7}]}, {"molecule": "B3", "values": [{"measurement": "% Activity (PHA)", "setting": "[3]; Donor 4, overnight incubation", "result": "ND/436%"}, {"measurement": "% Activity (PHA)", "setting": "[3]; Donor 5, overnight incubation", "result": "ND/408%"}]}]}
